This passage reports Active TGF -1 as % Control (TF1 monocytes, TGF-1 ELISA), 25 nmol/L Leu^27-IGF-II results from patent US7244707.

In this assay the target is cation-independent mannose-6-phosphate (CIM6P) receptor, human (human) (UniProt P11717). Nature of the assay: cell-based or functional assay.
Chain of UniProt P11717 (P11717 41-2491): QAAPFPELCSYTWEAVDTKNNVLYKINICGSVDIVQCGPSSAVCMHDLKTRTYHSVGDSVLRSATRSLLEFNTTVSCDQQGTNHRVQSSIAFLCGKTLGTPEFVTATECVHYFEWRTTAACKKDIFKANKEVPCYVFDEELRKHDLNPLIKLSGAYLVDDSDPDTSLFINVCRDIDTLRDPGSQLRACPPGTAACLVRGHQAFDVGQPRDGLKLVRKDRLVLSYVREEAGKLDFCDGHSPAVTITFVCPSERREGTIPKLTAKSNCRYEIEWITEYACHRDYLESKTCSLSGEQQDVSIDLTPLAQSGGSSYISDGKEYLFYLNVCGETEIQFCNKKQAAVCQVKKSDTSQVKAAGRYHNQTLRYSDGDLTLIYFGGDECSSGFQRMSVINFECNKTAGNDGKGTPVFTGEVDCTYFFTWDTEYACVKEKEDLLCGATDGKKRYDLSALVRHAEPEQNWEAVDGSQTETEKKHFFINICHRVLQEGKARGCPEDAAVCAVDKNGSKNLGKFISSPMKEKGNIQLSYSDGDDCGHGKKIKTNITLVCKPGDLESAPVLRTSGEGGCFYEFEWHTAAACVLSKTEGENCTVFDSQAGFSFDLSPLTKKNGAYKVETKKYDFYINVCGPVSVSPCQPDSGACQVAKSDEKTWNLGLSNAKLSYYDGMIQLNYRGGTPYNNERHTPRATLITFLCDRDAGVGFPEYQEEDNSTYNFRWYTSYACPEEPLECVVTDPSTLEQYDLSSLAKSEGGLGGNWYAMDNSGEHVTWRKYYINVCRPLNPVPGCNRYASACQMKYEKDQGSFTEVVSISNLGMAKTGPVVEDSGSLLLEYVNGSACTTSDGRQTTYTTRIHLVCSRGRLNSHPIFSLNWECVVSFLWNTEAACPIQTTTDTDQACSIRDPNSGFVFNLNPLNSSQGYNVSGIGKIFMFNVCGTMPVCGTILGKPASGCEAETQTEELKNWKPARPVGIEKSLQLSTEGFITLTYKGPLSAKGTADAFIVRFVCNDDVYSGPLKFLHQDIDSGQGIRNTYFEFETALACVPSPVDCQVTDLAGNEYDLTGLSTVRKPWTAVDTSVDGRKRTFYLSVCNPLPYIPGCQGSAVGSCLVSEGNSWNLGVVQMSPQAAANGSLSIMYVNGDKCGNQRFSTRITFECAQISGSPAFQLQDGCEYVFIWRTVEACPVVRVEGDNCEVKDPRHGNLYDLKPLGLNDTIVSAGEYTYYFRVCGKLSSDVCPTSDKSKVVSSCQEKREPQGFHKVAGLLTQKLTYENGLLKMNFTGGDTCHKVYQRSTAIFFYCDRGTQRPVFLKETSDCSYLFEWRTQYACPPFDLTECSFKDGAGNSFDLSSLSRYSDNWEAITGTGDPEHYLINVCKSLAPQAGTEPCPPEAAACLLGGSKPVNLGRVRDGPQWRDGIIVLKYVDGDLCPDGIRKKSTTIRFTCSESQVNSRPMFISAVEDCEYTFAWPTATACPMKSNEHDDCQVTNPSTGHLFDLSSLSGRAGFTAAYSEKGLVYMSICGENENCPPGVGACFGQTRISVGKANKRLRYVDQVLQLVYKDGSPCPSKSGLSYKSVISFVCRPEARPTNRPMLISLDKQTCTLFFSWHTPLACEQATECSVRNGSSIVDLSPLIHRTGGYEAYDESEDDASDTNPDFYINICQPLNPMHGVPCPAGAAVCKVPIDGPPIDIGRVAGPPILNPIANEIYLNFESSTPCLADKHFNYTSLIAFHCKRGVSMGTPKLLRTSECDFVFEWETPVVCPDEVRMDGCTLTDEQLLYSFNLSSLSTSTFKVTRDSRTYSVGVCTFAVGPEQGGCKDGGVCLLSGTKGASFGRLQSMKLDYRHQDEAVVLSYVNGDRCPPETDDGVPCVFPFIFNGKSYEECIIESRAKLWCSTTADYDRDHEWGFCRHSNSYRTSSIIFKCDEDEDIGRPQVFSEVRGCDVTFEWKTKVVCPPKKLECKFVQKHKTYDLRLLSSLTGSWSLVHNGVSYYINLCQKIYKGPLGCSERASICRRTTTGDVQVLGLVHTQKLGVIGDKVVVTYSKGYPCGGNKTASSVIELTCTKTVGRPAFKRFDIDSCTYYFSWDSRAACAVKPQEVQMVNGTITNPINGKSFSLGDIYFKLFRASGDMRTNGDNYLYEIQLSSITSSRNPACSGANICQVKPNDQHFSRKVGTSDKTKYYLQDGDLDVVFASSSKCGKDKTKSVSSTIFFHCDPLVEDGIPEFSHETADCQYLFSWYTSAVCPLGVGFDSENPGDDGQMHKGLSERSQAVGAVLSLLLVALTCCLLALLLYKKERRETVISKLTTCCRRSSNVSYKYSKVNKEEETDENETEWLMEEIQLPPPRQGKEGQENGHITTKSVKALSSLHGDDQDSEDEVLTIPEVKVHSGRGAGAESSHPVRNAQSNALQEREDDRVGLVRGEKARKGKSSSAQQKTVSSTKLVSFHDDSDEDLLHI

With “Leu^27IGF-II (receptor grade) (from UniProt P01344 25-91) (ligand)”, the Active TGF -1 as % Control (TF1 monocytes, TGF-1 ELISA), 25 nmol/L Leu^27-IGF-II turned out to be 12.7 % Control.
